# B1: Phospholipid-transporting ATPase DNF1 (Saccharomyces cerevisiae), P32660 (parent)
# chain: MSGTFHGDGHAPMSPFEDTFQFEDNSSNEDTHIAPTHFDDGATSNKYSRPQVSFNDETPKNKREDAEEFTFNDDTEYDNHSFQPTPKLNNGSGTFDDVELDNDSGEPHTNYDGMKRFRMGTKRNKKGNPIMGRSKTLKWARKNIPNPFEDFTKDDIDPGAINRAQELRTVYYNMPLPKDMIDEEGNPIMQYPRNKIRTTKYTPLTFLPKNILFQFHNFANVYFLVLIILGAFQIFGVTNPGLSAVPLVVIVIITAIKDAIEDSRRTVLDLEVNNTKTHILEGVENENVSTDNISLWRRFKKANSRLLFKFIQYCKEHLTEEGKKKRMQRKRHELRVQKTVGTSGPRSSLDSIDSYRVSADYGRPSLDYDNLEQGAGEANIVDRSLPPRTDCKFAKNYWKGVKVGDIVRIHNNDEIPADIILLSTSDTDGACYVETKNLDGETNLKVRQSLKCTNTIRTSKDIARTKFWIESEGPHSNLYTYQGNMKWRNLADGEIRNEPITINNVLLRGCTLRNTKWAMGVVMFTGGDTKIMLNSGITPTKKSRISRELNFSVVINFVLLFILCFVSGIANGVYYDKKGRSRFSYEFGTIAGSAATNGFVSFWVAVILYQSLVPISLYISVEIIKTAQAAFIYGDVLLYNAKLDYPCTPKSWNISDDLGQVEYIFSDKTGTLTQNVMEFKKCTINGVSYGRAYTEALAGLRKRQGIDVETEGRREKAEIAKDRDTMIDELRALSGNSQFYPEEVTFVSKEFVRDLKGASGEVQQRCCEHFMLALALCHSVLVEANPDNPKKLDLKAQSPDEAALVATARDVGFSFVGKTKKGLIIEMQGIQKEFEILNILEFNSSRKRMSCIVKIPGLNPGDEPRALLICKGADSIIYSRLSRQSGSNSEAILEKTALHLEQYATEGLRTLCIAQRELSWSEYEKWNEKYDIAAASLANREDELEVVADSIERELILLGGTAIEDRLQDGVPDCIELLAEAGIKLWVLTGDKVETAINIGFSCNLLNNEMELLVIKTTGDDVKEFGSEPSEIVDALLSKYLKEYFNLTGSEEEIFEAKKDHEFPKGNYAIVIDGDALKLALYGEDIRRKFLLLCKNCRAVLCCRVSPSQKAAVVKLVKDSLDVMTLAIGDGSNDVAMIQSADVGIGIAGEEGRQAVMCSDYAIGQFRYLARLVLVHGRWSYKRLAEMIPEFFYKNMIFALALFWYGIYNDFDGSYLYEYTYMMFYNLAFTSLPVIFLGILDQDVNDTISLVVPQLYRVGILRKEWNQRKFLWYMLDGLYQSIICFFFPYLVYHKNMIVTSNGLGLDHRYFVGVYVTTIAVISCNTYVLLHQYRWDWFSGLFIALSCLVVFAWTGIWSSAIASREFFKAAARIYGAPSFWAVFFVAVLFCLLPRFTYDSFQKFFYPTDVEIVREMWQHGHFDHYPPGYDPTDPNRPKVTKAGQHGEKIIEGIALSDNLGGSNYSRDSVVTEEIPMTFMHGEDGSPSGYQKQETWMTSPKETQDLLQSPQFQQAQTFGRGPSTNVRSSLDRTREQMIATNQLDNRYSVERARTSLDLPGVTNAASLIGTQQNN
# B2: Serine/threonine-protein kinase YPK1 (Saccharomyces cerevisiae), P12688 (parent)
# chain: MYSWKSKFKFGKSKEEKEAKHSGFFHSSKKEEQQNNQATAGEHDASITRSSLDRKGTINPSNSSVVPVRVSYDASSSTSTVRDSNGGNSENTNSSQNLDETANIGSTGTPNDATSSSGMMTIKVYNGDDFILPFPITSSEQILNKLLASGVPPPHKEISKEVDALIAQLSRVQIKNQGPADEDLISSESAAKFIPSTIMLPGSSTLNPLLYFTIEFDNTVATIEAEYGTIAKPGFNKISTFDVTRKLPYLKIDVFARIPSILLPSKTWQQEMGLQDEKLQTIFDKINSNQDIHLDSFHLPINLSFDSAASIRLYNHHWITLDNGLGKINISIDYKPSRNKPLSIDDFDLLKVIGKGSFGKVMQVRKKDTQKVYALKAIRKSYIVSKSEVTHTLAERTVLARVDCPFIVPLKFSFQSPEKLYFVLAFINGGELFYHLQKEGRFDLSRARFYTAELLCALDNLHKLDVVYRDLKPENILLDYQGHIALCDFGLCKLNMKDDDKTDTFCGTPEYLAPELLLGLGYTKAVDWWTLGVLLYEMLTGLPPYYDEDVPKMYKKILQEPLVFPDGFDRDAKDLLIGLLSRDPTRRLGYNGADEIRNHPFFSQLSWKRLLMKGYIPPYKPAVSNSMDTSNFDEEFTREKPIDSVVDEYLSESVQKQFGGWTYVGNEQLGSSMVQGRSIR
# Variants of: B1
# Details: with fpk1_yeast FPK1, P53739
row,effect of a mutation on the interaction,Variant
1,decreasing interaction,S1526A;S1552A

# Variants of: B2
# Details: with fpk1_yeast FPK1, P53739
# Target sequence in this assay (P53739 whole entry): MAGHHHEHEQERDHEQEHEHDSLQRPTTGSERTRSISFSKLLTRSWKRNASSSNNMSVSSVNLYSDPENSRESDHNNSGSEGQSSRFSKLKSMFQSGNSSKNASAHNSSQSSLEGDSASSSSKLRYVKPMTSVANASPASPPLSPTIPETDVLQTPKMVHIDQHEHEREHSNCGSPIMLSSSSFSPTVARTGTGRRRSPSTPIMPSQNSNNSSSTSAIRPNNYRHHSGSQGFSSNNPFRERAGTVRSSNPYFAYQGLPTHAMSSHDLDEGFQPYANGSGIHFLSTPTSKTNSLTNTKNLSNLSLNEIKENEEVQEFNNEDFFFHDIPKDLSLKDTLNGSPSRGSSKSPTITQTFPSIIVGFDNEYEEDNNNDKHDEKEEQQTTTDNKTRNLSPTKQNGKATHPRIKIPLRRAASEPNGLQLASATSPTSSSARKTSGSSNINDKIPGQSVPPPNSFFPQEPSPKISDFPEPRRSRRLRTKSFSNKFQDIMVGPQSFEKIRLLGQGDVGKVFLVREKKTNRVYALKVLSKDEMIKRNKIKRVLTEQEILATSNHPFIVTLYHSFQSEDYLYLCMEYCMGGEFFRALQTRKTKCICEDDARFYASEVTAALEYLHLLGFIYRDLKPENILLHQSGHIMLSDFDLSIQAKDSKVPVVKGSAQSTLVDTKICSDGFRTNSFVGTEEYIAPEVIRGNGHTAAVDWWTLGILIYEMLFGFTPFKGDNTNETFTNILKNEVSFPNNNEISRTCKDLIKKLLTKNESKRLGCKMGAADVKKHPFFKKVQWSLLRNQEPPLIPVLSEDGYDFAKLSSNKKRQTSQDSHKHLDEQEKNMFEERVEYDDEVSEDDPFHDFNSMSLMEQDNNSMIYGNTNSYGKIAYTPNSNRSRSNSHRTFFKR
row,effect of a mutation on the interaction,Variant
1,disrupting interaction,S51A;S71A

# Reference: IntAct's records for PubMed 19966303
